# Data reported in US10919943B2, “Mutant proteins enabling agrochemical control of plant gene expression” (The Regents of the University of California, priority 2016, dated 2021).
# T1: PYR1 (Arabidopsis thaliana, UniProt O49686)
# T1 construct: expressed in transfected cells; host or cells: S. cerevisiae strain Y190
# T1 sequence (O49686 1-191): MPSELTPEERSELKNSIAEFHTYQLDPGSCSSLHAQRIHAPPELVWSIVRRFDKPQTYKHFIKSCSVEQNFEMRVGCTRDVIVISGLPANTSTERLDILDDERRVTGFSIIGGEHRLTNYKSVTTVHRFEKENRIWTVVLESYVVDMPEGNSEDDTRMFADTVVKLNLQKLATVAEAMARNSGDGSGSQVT
# Biological target: T1, PYR1
# Assay: Yeast two hybrid of pACT-HAB1 site saturation mutants with pBD-PYR1 on 10 μM ABA, β-galactosidase staining
# Format: cell-based
# Parameters: key: x: Mutations in HAB1 that disrupt HAB1 interaction with PYR1
# Conditions: S. cerevisiae Y190, 10 μM ABA; dead = lack of detectable staining in comparison to wild type control
# How it was run: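 HAB1 (lacking three N-terminal residues) site-saturation mutants in pACT were co-transformed with pBD-PYR1 into S. cerevisiae Y190 and spotted on SD (-Leu,-Trp) with 10 μM ABA. After 2 days at 30 °C, chloroform-lysed colonies were stained for β-galactosidase; "dead" means no detectable staining versus wild-type pair.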
row,Mutations in HAB1 that disrupt HAB1 interaction with PYR1,Molecule
1,x,"H245T: HAB1 mutant (protein, UniProt Q9CAJ0 23-511, looked up, variant H245T) Protein phosphatase 2C 16: SPVEITQLKNVTDAADLLSDSENQSFCNGGTECTMEDVSELEEVGEQDLLKTLSDTRSGSSNVFDEDDVLSVVEDNSAVISEGLLVVDAGSELSLSNTAMEIDNGRVLATAIIVGESSIEQVPTAEVLIAGVNQDTNTSEVVIRLPDENSNHLVKGRSVYELDCIPLWGTVSIQGNRSEMEDAFAVSPHFLKLPIKMLMGDHEGMSPSLTHLTGHFFGVYDGTGGHKVADYCRDRLHFALAEEIERIKDELCKRNTGEGRQVQWDKVFTSCFLTVDGEIEGKIGRAVVGSSDKVLEAVASETVGSTAVVALVCSSHIVVSNCGDSRAVLFRGKEAMPLSVDHKPDREDEYARIENAGGKVIQWQGARVFGVLAMSRSIGDRYLKPYVIPEPEVTFMPRSREDECLILASDGLWDVMNNQEVCEIARRRILMWHKKNGAPPLAERGKGIDPACQAAADYLSMLALQKGSKDNISIIVIDLKAQRKFKTRT"
2,x,"H245G: HAB1 mutant (protein, UniProt Q9CAJ0 23-511, looked up, variant H245G) Protein phosphatase 2C 16: SPVEITQLKNVTDAADLLSDSENQSFCNGGTECTMEDVSELEEVGEQDLLKTLSDTRSGSSNVFDEDDVLSVVEDNSAVISEGLLVVDAGSELSLSNTAMEIDNGRVLATAIIVGESSIEQVPTAEVLIAGVNQDTNTSEVVIRLPDENSNHLVKGRSVYELDCIPLWGTVSIQGNRSEMEDAFAVSPHFLKLPIKMLMGDHEGMSPSLTHLTGHFFGVYDGGGGHKVADYCRDRLHFALAEEIERIKDELCKRNTGEGRQVQWDKVFTSCFLTVDGEIEGKIGRAVVGSSDKVLEAVASETVGSTAVVALVCSSHIVVSNCGDSRAVLFRGKEAMPLSVDHKPDREDEYARIENAGGKVIQWQGARVFGVLAMSRSIGDRYLKPYVIPEPEVTFMPRSREDECLILASDGLWDVMNNQEVCEIARRRILMWHKKNGAPPLAERGKGIDPACQAAADYLSMLALQKGSKDNISIIVIDLKAQRKFKTRT"
3,x,"H245D: HAB1 mutant (protein, UniProt Q9CAJ0 23-511, looked up, variant H245D) Protein phosphatase 2C 16: SPVEITQLKNVTDAADLLSDSENQSFCNGGTECTMEDVSELEEVGEQDLLKTLSDTRSGSSNVFDEDDVLSVVEDNSAVISEGLLVVDAGSELSLSNTAMEIDNGRVLATAIIVGESSIEQVPTAEVLIAGVNQDTNTSEVVIRLPDENSNHLVKGRSVYELDCIPLWGTVSIQGNRSEMEDAFAVSPHFLKLPIKMLMGDHEGMSPSLTHLTGHFFGVYDGDGGHKVADYCRDRLHFALAEEIERIKDELCKRNTGEGRQVQWDKVFTSCFLTVDGEIEGKIGRAVVGSSDKVLEAVASETVGSTAVVALVCSSHIVVSNCGDSRAVLFRGKEAMPLSVDHKPDREDEYARIENAGGKVIQWQGARVFGVLAMSRSIGDRYLKPYVIPEPEVTFMPRSREDECLILASDGLWDVMNNQEVCEIARRRILMWHKKNGAPPLAERGKGIDPACQAAADYLSMLALQKGSKDNISIIVIDLKAQRKFKTRT"

# The next lines start with the molecule.
row,Molecule,Mutations in HAB1 that disrupt HAB1 interaction with PYR1
1,"H245C: HAB1 mutant (protein, UniProt Q9CAJ0 23-511, looked up, variant H245C) Protein phosphatase 2C 16: SPVEITQLKNVTDAADLLSDSENQSFCNGGTECTMEDVSELEEVGEQDLLKTLSDTRSGSSNVFDEDDVLSVVEDNSAVISEGLLVVDAGSELSLSNTAMEIDNGRVLATAIIVGESSIEQVPTAEVLIAGVNQDTNTSEVVIRLPDENSNHLVKGRSVYELDCIPLWGTVSIQGNRSEMEDAFAVSPHFLKLPIKMLMGDHEGMSPSLTHLTGHFFGVYDGCGGHKVADYCRDRLHFALAEEIERIKDELCKRNTGEGRQVQWDKVFTSCFLTVDGEIEGKIGRAVVGSSDKVLEAVASETVGSTAVVALVCSSHIVVSNCGDSRAVLFRGKEAMPLSVDHKPDREDEYARIENAGGKVIQWQGARVFGVLAMSRSIGDRYLKPYVIPEPEVTFMPRSREDECLILASDGLWDVMNNQEVCEIARRRILMWHKKNGAPPLAERGKGIDPACQAAADYLSMLALQKGSKDNISIIVIDLKAQRKFKTRT",x
2,"H245Y: HAB1 mutant (protein, UniProt Q9CAJ0 23-511, looked up, variant H245Y) Protein phosphatase 2C 16: SPVEITQLKNVTDAADLLSDSENQSFCNGGTECTMEDVSELEEVGEQDLLKTLSDTRSGSSNVFDEDDVLSVVEDNSAVISEGLLVVDAGSELSLSNTAMEIDNGRVLATAIIVGESSIEQVPTAEVLIAGVNQDTNTSEVVIRLPDENSNHLVKGRSVYELDCIPLWGTVSIQGNRSEMEDAFAVSPHFLKLPIKMLMGDHEGMSPSLTHLTGHFFGVYDGYGGHKVADYCRDRLHFALAEEIERIKDELCKRNTGEGRQVQWDKVFTSCFLTVDGEIEGKIGRAVVGSSDKVLEAVASETVGSTAVVALVCSSHIVVSNCGDSRAVLFRGKEAMPLSVDHKPDREDEYARIENAGGKVIQWQGARVFGVLAMSRSIGDRYLKPYVIPEPEVTFMPRSREDECLILASDGLWDVMNNQEVCEIARRRILMWHKKNGAPPLAERGKGIDPACQAAADYLSMLALQKGSKDNISIIVIDLKAQRKFKTRT",x
3,"H245I: HAB1 mutant (protein, UniProt Q9CAJ0 23-511, looked up, variant H245I) Protein phosphatase 2C 16: SPVEITQLKNVTDAADLLSDSENQSFCNGGTECTMEDVSELEEVGEQDLLKTLSDTRSGSSNVFDEDDVLSVVEDNSAVISEGLLVVDAGSELSLSNTAMEIDNGRVLATAIIVGESSIEQVPTAEVLIAGVNQDTNTSEVVIRLPDENSNHLVKGRSVYELDCIPLWGTVSIQGNRSEMEDAFAVSPHFLKLPIKMLMGDHEGMSPSLTHLTGHFFGVYDGIGGHKVADYCRDRLHFALAEEIERIKDELCKRNTGEGRQVQWDKVFTSCFLTVDGEIEGKIGRAVVGSSDKVLEAVASETVGSTAVVALVCSSHIVVSNCGDSRAVLFRGKEAMPLSVDHKPDREDEYARIENAGGKVIQWQGARVFGVLAMSRSIGDRYLKPYVIPEPEVTFMPRSREDECLILASDGLWDVMNNQEVCEIARRRILMWHKKNGAPPLAERGKGIDPACQAAADYLSMLALQKGSKDNISIIVIDLKAQRKFKTRT",x
4,"H245E: HAB1 mutant (protein, UniProt Q9CAJ0 23-511, looked up, variant H245E) Protein phosphatase 2C 16: SPVEITQLKNVTDAADLLSDSENQSFCNGGTECTMEDVSELEEVGEQDLLKTLSDTRSGSSNVFDEDDVLSVVEDNSAVISEGLLVVDAGSELSLSNTAMEIDNGRVLATAIIVGESSIEQVPTAEVLIAGVNQDTNTSEVVIRLPDENSNHLVKGRSVYELDCIPLWGTVSIQGNRSEMEDAFAVSPHFLKLPIKMLMGDHEGMSPSLTHLTGHFFGVYDGEGGHKVADYCRDRLHFALAEEIERIKDELCKRNTGEGRQVQWDKVFTSCFLTVDGEIEGKIGRAVVGSSDKVLEAVASETVGSTAVVALVCSSHIVVSNCGDSRAVLFRGKEAMPLSVDHKPDREDEYARIENAGGKVIQWQGARVFGVLAMSRSIGDRYLKPYVIPEPEVTFMPRSREDECLILASDGLWDVMNNQEVCEIARRRILMWHKKNGAPPLAERGKGIDPACQAAADYLSMLALQKGSKDNISIIVIDLKAQRKFKTRT",x
5,"H245V: HAB1 mutant (protein, UniProt Q9CAJ0 23-511, looked up, variant H245V) Protein phosphatase 2C 16: SPVEITQLKNVTDAADLLSDSENQSFCNGGTECTMEDVSELEEVGEQDLLKTLSDTRSGSSNVFDEDDVLSVVEDNSAVISEGLLVVDAGSELSLSNTAMEIDNGRVLATAIIVGESSIEQVPTAEVLIAGVNQDTNTSEVVIRLPDENSNHLVKGRSVYELDCIPLWGTVSIQGNRSEMEDAFAVSPHFLKLPIKMLMGDHEGMSPSLTHLTGHFFGVYDGVGGHKVADYCRDRLHFALAEEIERIKDELCKRNTGEGRQVQWDKVFTSCFLTVDGEIEGKIGRAVVGSSDKVLEAVASETVGSTAVVALVCSSHIVVSNCGDSRAVLFRGKEAMPLSVDHKPDREDEYARIENAGGKVIQWQGARVFGVLAMSRSIGDRYLKPYVIPEPEVTFMPRSREDECLILASDGLWDVMNNQEVCEIARRRILMWHKKNGAPPLAERGKGIDPACQAAADYLSMLALQKGSKDNISIIVIDLKAQRKFKTRT",x
6,"H245W: HAB1 mutant (protein, UniProt Q9CAJ0 23-511, looked up, variant H245W) Protein phosphatase 2C 16: SPVEITQLKNVTDAADLLSDSENQSFCNGGTECTMEDVSELEEVGEQDLLKTLSDTRSGSSNVFDEDDVLSVVEDNSAVISEGLLVVDAGSELSLSNTAMEIDNGRVLATAIIVGESSIEQVPTAEVLIAGVNQDTNTSEVVIRLPDENSNHLVKGRSVYELDCIPLWGTVSIQGNRSEMEDAFAVSPHFLKLPIKMLMGDHEGMSPSLTHLTGHFFGVYDGWGGHKVADYCRDRLHFALAEEIERIKDELCKRNTGEGRQVQWDKVFTSCFLTVDGEIEGKIGRAVVGSSDKVLEAVASETVGSTAVVALVCSSHIVVSNCGDSRAVLFRGKEAMPLSVDHKPDREDEYARIENAGGKVIQWQGARVFGVLAMSRSIGDRYLKPYVIPEPEVTFMPRSREDECLILASDGLWDVMNNQEVCEIARRRILMWHKKNGAPPLAERGKGIDPACQAAADYLSMLALQKGSKDNISIIVIDLKAQRKFKTRT",x
7,"H245F: HAB1 mutant (protein, UniProt Q9CAJ0 23-511, looked up, variant H245F) Protein phosphatase 2C 16: SPVEITQLKNVTDAADLLSDSENQSFCNGGTECTMEDVSELEEVGEQDLLKTLSDTRSGSSNVFDEDDVLSVVEDNSAVISEGLLVVDAGSELSLSNTAMEIDNGRVLATAIIVGESSIEQVPTAEVLIAGVNQDTNTSEVVIRLPDENSNHLVKGRSVYELDCIPLWGTVSIQGNRSEMEDAFAVSPHFLKLPIKMLMGDHEGMSPSLTHLTGHFFGVYDGFGGHKVADYCRDRLHFALAEEIERIKDELCKRNTGEGRQVQWDKVFTSCFLTVDGEIEGKIGRAVVGSSDKVLEAVASETVGSTAVVALVCSSHIVVSNCGDSRAVLFRGKEAMPLSVDHKPDREDEYARIENAGGKVIQWQGARVFGVLAMSRSIGDRYLKPYVIPEPEVTFMPRSREDECLILASDGLWDVMNNQEVCEIARRRILMWHKKNGAPPLAERGKGIDPACQAAADYLSMLALQKGSKDNISIIVIDLKAQRKFKTRT",x
